Laboratory results reported in patent publication US12269859B2, “Synthetic immune receptors and methods of use thereof” (Angeles Therapeutics, Inc., priority 2016, dated 2025).

System: target antigen-expressing cell line
Experiment: Jurkat NFAT-GFP assay, coculture with target cell lines expressing the respective target antigen (summary Table 10A)
Type: cell-based, human
Design: key: The signs +/−, +, 2+ etc. after the name of the cell lines indicate the relative degree of positivity on the Jurkat-NFAT-GFP assay as measured by the % GFP positive cells; +: relative degree of positivity on the Jurkat-NFAT-GFP assay as measured by the % GFP positive cells; 2+: relative degree of positivity on the Jurkat-NFAT-GFP assay as measured by the % GFP positive cells
How it was run: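 Read-out: % GFP+ cells by FACS. SIR-transduced, puromycin-selected Jurkat NFAT-GFP (IL-2 promoter reporter) cocultured ~4–18 h with target line, E:T ~1:2; parental cells as control; graded +/−, +, 2+ relative to parental.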

B1: 012517-P12 (protein)
chain: MALPVTALLLPLALLLHAARPLEGKPIPNPLLGLDSTGSGEDLKNVFPPEVAVFEPSKAEIAHTQKATLVCLATGFYPDHVELSWWVNGKEVHSGVCTDPQPLKEQPALNDSRYCLSSRLRVSATFWQNPRNHFRCQVQFYGLSENDEWTQDRAKPVTQIVSAEAWGRADCGITSASYHQGVLSATILYEILLGKATLYAVLVSALVLMAMVKRKDSRGRAKRSGSGATNFSLLKQAGDVEENPGPTSMALPVTALLLPLALLLHAARPDIVMTQSHKFMSTSVGDRVSITCKASQDVSTAVAWYQQKPGQSPKLLIYSASYRYTGVPDRFTGSGSGTDFTFTISSVQAEDLAVYYCQQHYSTPPYTFGGGTKLEIKGGGGSGGGGSGGGGSQVQLQQSGPELVKPGASVKISCKASGYAFSSSWMNWVKQRPGQGLEWIGRIYPGDGDTKYNGKFKGKATLTADKSSSTAYMQLSSLTSVDSAVYFCARSTMIATGAMDYWGQGTSVTVSSTREQKLISEEDGSGIQNPDPAVYQLRDSKSSDKSVCLFTDFDSQTNVSQSKDSDVYITDKCVLDMRSMDFKSNSAVAWSNKSDFACANAFNNSIIPEDTFFPSSDVPCDVKLVEKSFETDTNLNFQNLSVIGFRILLLKVAGFNLLMTLRLWSSRAKRSGSGVKQTLNFDLLKLAGDVESNPGPSRGHMTEYKPTVRLATRDDVPRAVRTLAAAFADYPATRHTVDPDRHIERVTELQELFLTRVGLDIGKVWVADDGAAVAVWTTPESVEAGAVFAEIGPRMAELSGSRLAAQQQMEGLLAPHRPKEPAWFLATVGVSPDHQGKGLGSAVVLPGVEAAERAGVPAFLETSAPRNLPFYERLGFTVTADVEVPEGPRTWCMTRKPGA
NFAT-GFP ASSAY Positive Cell lines (coculture with L363 cells): (+/−)
NFAT-GFP ASSAY Positive Cell lines (coculture with U266 cells): U266 (+/−), L363

B2: 012517-B12 (protein)
chain: MALPVTALLLPLALLLHAARPLEGKPIPNPLLGLDSTGSGEDLKNVFPPEVAVFEPSKAEIAHTQKATLVCLATGFYPDHVELSWWVNGKEVHSGVCTDPQPLKEQPALNDSRYCLSSRLRVSATFWQNPRNHFRCQVQFYGLSENDEWTQDRAKPVTQIVSAEAWGRADCGITSASYHQGVLSATILYEILLGKATLYAVLVSALVLMAMVKRKDSRGRAKRSGSGATNFSLLKQAGDVEENPGPTSMALPVTALLLPLALLLHAARPDVVMTQTPLSLSVTPGQPASISCRSSQSLVHNNGNTYLHWYLQKPGQSPQLLIYKVSNRFSGVPDRFSGSGSGTDFTLKISRVEAEDVGVYFCSQSTHVPPYTFGGGTKVEIKGGGGSGGGGSGGGGSEVQLVESGGGLVQPGGSLRLSCAASGFTFSDYYMAWVRQAPGKGLEWVAEINYDGSSTYYVDSVKGRFTISRDNAKNSLYLQMNSLRAEDTAVYYCARDRGFYFDYWGQGTTVTVSSTREQKLISEEDGSGIQNPDPAVYQLRDSKSSDKSVCLFTDFDSQTNVSQSKDSDVYITDKCVLDMRSMDFKSNSAVAWSNKSDFACANAFNNSIIPEDTFFPSSDVPCDVKLVEKSFETDTNLNFQNLSVIGFRILLLKVAGFNLLMTLRLWSSRAKRSGSGVKQTLNFDLLKLAGDVESNPGPSRGHMTEYKPTVRLATRDDVPRAVRTLAAAFADYPATRHTVDPDRHIERVTELQELFLTRVGLDIGKVWVADDGAAVAVWTTPESVEAGAVFAEIGPRMAELSGSRLAAQQQMEGLLAPHRPKEPAWFLATVGVSPDHQGKGLGSAVVLPGVEAAERAGVPAFLETSAPRNLPFYERLGFTVTADVEVPEGPRTWCMTRKPGA
NFAT-GFP ASSAY Positive Cell lines (coculture with L363 cells): +
NFAT-GFP ASSAY Positive Cell lines (coculture with U266 cells): 2+

B3: 012517-N12 (protein)
chain: MALPVTALLLPLALLLHAARPLEGKPIPNPLLGLDSTGSGEDLKNVFPPEVAVFEPSKAEIAHTQKATLVCLATGFYPDHVELSWWVNGKEVHSGVCTDPQPLKEQPALNDSRYCLSSRLRVSATFWQNPRNHFRCQVQFYGLSENDEWTQDRAKPVTQIVSAEAWGRADCGITSASYHQGVLSATILYEILLGKATLYAVLVSALVLMAMVKRKDSRGRAKRSGSGATNFSLLKQAGDVEENPGPTSMALPVTALLLPLALLLHAARPDVVMTQSPLSLPVTPGEPASISCRSSQSLVHSNGNTYLHWYLQKPGQSPQLLIYKVSNRFSGVPDRFSGSGSGTDFTLKISRVEAEDVGVYFCSQSTHVPPFTFGGGTKVEIKGGGGSGGGGSGGGGSEVQLVESGGGLVQPGGSLRLSCAASGFTFSDYYMAWVRQAPGKGLEWVADINYDGGSTYYLDSLKSRFTISRDNAKNSLYLQMNSLRAEDTAVYYCARDRGYYFDYWGQGTLVTVSSTREQKLISEEDGSGIQNPDPAVYQLRDSKSSDKSVCLFTDFDSQTNVSQSKDSDVYITDKCVLDMRSMDFKSNSAVAWSNKSDFACANAFNNSIIPEDTFFPSSDVPCDVKLVEKSFETDTNLNFQNLSVIGFRILLLKVAGFNLLMTLRLWSSRAKRSGSGVKQTLNFDLLKLAGDVESNPGPSRGHMTEYKPTVRLATRDDVPRAVRTLAAAFADYPATRHTVDPDRHIERVTELQELFLTRVGLDIGKVWVADDGAAVAVWTTPESVEAGAVFAEIGPRMAELSGSRLAAQQQMEGLLAPHRPKEPAWFLATVGVSPDHQGKGLGSAVVLPGVEAAERAGVPAFLETSAPRNLPFYERLGFTVTADVEVPEGPRTWCMTRKPGA
NFAT-GFP ASSAY Positive Cell lines (coculture with L363 cells): +
NFAT-GFP ASSAY Positive Cell lines (coculture with U266 cells): 2+

B4: 012517-O12 (protein)
chain: MALPVTALLLPLALLLHAARPLEGKPIPNPLLGLDSTGSGEDLKNVFPPEVAVFEPSKAEIAHTQKATLVCLATGFYPDHVELSWWVNGKEVHSGVCTDPQPLKEQPALNDSRYCLSSRLRVSATFWQNPRNHFRCQVQFYGLSENDEWTQDRAKPVTQIVSAEAWGRADCGITSASYHQGVLSATILYEILLGKATLYAVLVSALVLMAMVKRKDSRGRAKRSGSGATNFSLLKQAGDVEENPGPTSMALPVTALLLPLALLLHAARPDIQMTQSSSYLSVSLGGRVTITCKASDHINNWLAWYQQKPGNAPRLLISGATSLETGVPSRFSGSGSGKDYTLSITSLQTEDVATYYCQQYWSTPWTFGGGTKLEIKGGGGSGGGGSGGGGSQVQLQQSGAELARPGASVKLSCKASGYTFTSYWMQWVKQRPGQGLEWIGAIYPGDGDTRYTQKFKGKATLTADKSSSTAYMQLSSLASEDSAVYYCARGKVYYGSNPFAYWGQGTLVTVSATREQKLISEEDGSGIQNPDPAVYQLRDSKSSDKSVCLFTDFDSQTNVSQSKDSDVYITDKCVLDMRSMDFKSNSAVAWSNKSDFACANAFNNSIIPEDTFFPSSDVPCDVKLVEKSFETDTNLNFQNLSVIGFRILLLKVAGFNLLMTLRLWSSRAKRSGSGVKQTLNFDLLKLAGDVESNPGPSRGHMTEYKPTVRLATRDDVPRAVRTLAAAFADYPATRHTVDPDRHIERVTELQELFLTRVGLDIGKVWVADDGAAVAVWTTPESVEAGAVFAEIGPRMAELSGSRLAAQQQMEGLLAPHRPKEPAWFLATVGVSPDHQGKGLGSAVVLPGVEAAERAGVPAFLETSAPRNLPFYERLGFTVTADVEVPEGPRTWCMTRKPGA
NFAT-GFP ASSAY Positive Cell lines (coculture with L363 cells): +/−
NFAT-GFP ASSAY Positive Cell lines (coculture with U266 cells): +
